Tests used:
HLA-A*02:02 = assay: IEDB peptide-MHC binding, purified MHC/competitive/radioactivity; filed as Kd, often an IC50 or EC50 that approximates it; ≥ and ≤ were set here for values at or beyond the usual limits of such assays
HLA-A*02:03 = assay: as above
HLA-A*02:06 = assay: as above
HLA-A*32:01 = assay: as above
HLA-A*02:01 [1] = assay: IEDB peptide-MHC binding, purified MHC/competitive/fluorescence; ≥ and ≤ were set here for values at or beyond the usual limits of such assays
HLA-B*44:02 = assay: IEDB peptide-MHC binding, purified MHC/competitive/radioactivity; filed as Kd, often an IC50 or EC50 that approximates it; ≥ and ≤ were set here for values at or beyond the usual limits of such assays
HLA-B*44:03 = assay: as above
HLA-A*01:01 [2] = assay: IEDB peptide-MHC binding, purified MHC/direct/fluorescence; filed as Kd, often an IC50 or EC50 that approximates it; ≥ and ≤ were set here for values at or beyond the usual limits of such assays; conditions: source organism: Human immunodeficiency virus 1
HLA-B*15:01 = assay: as above
HLA-B*58:01 = assay: as above; conditions: source organism: Human immunodeficiency virus 1
HLA-A*01:01 [3] = assay: IEDB peptide-MHC binding, purified MHC/competitive/radioactivity; filed as Kd, often an IC50 or EC50 that approximates it; ≥ and ≤ were set here for values at or beyond the usual limits of such assays
HLA-B*53:01 = assay: as above; conditions: source organism: Dengue virus 4 Philippines/H241/1956
HLA-A*02:01 [4] = assay: IEDB peptide-MHC binding, purified MHC/direct/fluorescence; filed as Kd, often an IC50 or EC50 that approximates it; ≥ and ≤ were set here for values at or beyond the usual limits of such assays
HLA-A*69:01 = assay: as above
HLA-A*26:01 = assay: IEDB peptide-MHC binding, purified MHC/competitive/radioactivity; filed as Kd, often an IC50 or EC50 that approximates it; ≥ and ≤ were set here for values at or beyond the usual limits of such assays
HLA-A*30:02 = assay: as above; conditions: source organism: Dengue virus 4 Philippines/H241/1956
HLA-B*07:02 = assay: IEDB peptide-MHC binding, purified MHC/direct/fluorescence; filed as Kd, often an IC50 or EC50 that approximates it; ≥ and ≤ were set here for values at or beyond the usual limits of such assays; conditions: source organism: Mycobacterium tuberculosis F11
HLA-B*40:01 [5] = assay: IEDB peptide-MHC binding, purified MHC/competitive/radioactivity; filed as Kd, often an IC50 or EC50 that approximates it; ≥ and ≤ were set here for values at or beyond the usual limits of such assays; conditions: source organism: Dengue virus 2 Peru/IQT2913/1996
HLA-B*40:01 [6] = assay: IEDB peptide-MHC binding, purified MHC/direct/fluorescence; filed as Kd, often an IC50 or EC50 that approximates it; ≥ and ≤ were set here for values at or beyond the usual limits of such assays; conditions: source organism: Influenza A virus (A/Moscow/346/2003(H3N2))
[7] = source organism: Vaccinia virus WR
[8] = source organism: Dengue virus 2 Jamaica/1409/1983
[9] = source organism: Zaire ebolavirus
[10] = source organism: Sudan ebolavirus
[11] = source organism: Mammarenavirus juninense
[12] = source organism: Vaccinia virus Copenhagen
[13] = source organism: Dengue virus 1 Brazil/97-11/1997
[14] = source organism: SARS coronavirus Tor2
[15] = source organism: Shigella dysenteriae
[16] = source organism: Dengue virus 3 Martinique/1243/1999
[17] = source organism: Dengue virus 4 Philippines/H241/1956
[18] = source organism: Yersinia pestis

Sequence: EIARIENEM
- Kd (HLA-A*02:02; [7]): 0.335 µM
- Kd (HLA-A*02:03; [7]): ≥ 47.9 µM
- Kd (HLA-A*02:06; [7]): ≥ 77.1 µM

Sequence: EDMLAVWNRV
- Kd (HLA-A*32:01; [8]): 0.219 µM

Sequence: AGPPKAENT
- IC50 (HLA-A*02:01 [1]; [9]): 66.6 µM

Sequence: LEENVEVEIW
- Kd (HLA-B*44:02; [8]): 0.124 µM
- Kd (HLA-B*44:03; [8]): 0.367 µM

Sequence: GVEVRYIDI
- Kd (HLA-A*02:02; [7]): 12 µM
- Kd (HLA-A*02:03; [7]): ≥ 45.3 µM
- Kd (HLA-A*02:06; [7]): 10.2 µM

Sequence: NSSKVSQNY
- Kd (HLA-A*01:01 [2]): 0.0412 µM
- Kd (HLA-B*15:01; source organism: Human immunodeficiency virus 1): 0.301 µM
- Kd (HLA-B*58:01): 0.742 µM

Sequence: LAEYIRHRNT
- Kd (HLA-A*02:02; [7]): ≥ 36.1 µM
- Kd (HLA-A*02:03; [7]): 14 µM
- Kd (HLA-A*02:06; [7]): ≥ 69.8 µM

Sequence: YLFSQNYSF
- Kd (HLA-A*32:01; [7]): 0.00139 µM

Sequence: QLVCKDHLA
- IC50 (HLA-A*02:01 [1]; [10]): 19.6 µM

Sequence: YCNYTKFWYV
- Kd (HLA-A*02:02; [11]): 0.322 µM
- Kd (HLA-A*02:03; [11]): 0.101 µM
- Kd (HLA-A*02:06; [11]): 0.00654 µM

Sequence: SMSQELAELL
- Kd (HLA-A*02:02; [7]): 0.00619 µM
- Kd (HLA-A*02:03; [7]): 0.0545 µM
- Kd (HLA-A*02:06; [7]): 0.474 µM

Sequence: KTEHCDDFM
- Kd (HLA-A*02:02; [7]): 6.5 µM
- Kd (HLA-A*02:03; [7]): 18.1 µM
- Kd (HLA-A*02:06; [7]): 2.52 µM

Sequence: LIAGIILLI
- Kd (HLA-A*02:02; [12]): 0.000173 µM
- Kd (HLA-A*02:03; [12]): 0.0385 µM
- Kd (HLA-A*02:06; [12]): 8.22 µM
- Kd (HLA-A*32:01; [12]): ≥ 77.8 µM

Sequence: DILQMREIIT
- Kd (HLA-A*02:02; [7]): ≥ 45.5 µM
- Kd (HLA-A*02:03; [7]): ≥ 56.2 µM
- Kd (HLA-A*02:06; [7]): 17.7 µM

Sequence: GIFVDTMSI
- Kd (HLA-A*02:02; [7]): 2.88 µM
- Kd (HLA-A*02:03; [7]): 0.936 µM
- Kd (HLA-A*02:06; [7]): 1.62 µM

Sequence: ILHNIYRLFT
- Kd (HLA-A*02:02; [7]): 0.125 µM
- Kd (HLA-A*02:03; [7]): 0.0107 µM
- Kd (HLA-A*02:06; [7]): 1.21 µM

Sequence: MHNQDGLIC
- IC50 (HLA-A*02:01 [1]; [9]): 2.34 µM

Sequence: STTRGALIF
- Kd (HLA-A*32:01; [7]): 0.296 µM

Sequence: KTHVSSWEEV
- Kd (HLA-A*32:01; [13]): 6.69 µM

Sequence: IIDLLLPST
- Kd (HLA-A*02:02; [7]): 15.1 µM
- Kd (HLA-A*02:03; [7]): 10.3 µM
- Kd (HLA-A*02:06; [7]): 1.12 µM

Sequence: EEQTLTILI
- Kd (HLA-B*44:02; [8]): 0.014 µM
- Kd (HLA-B*44:03; [8]): 0.146 µM

Sequence: LTDYGALTL
- Kd (HLA-A*01:01 [3]; [13]): 0.201 µM

Sequence: FLFLAWIML
- Kd (HLA-A*02:02; [14]): 0.00181 µM
- Kd (HLA-A*02:03; [14]): 0.0377 µM
- Kd (HLA-A*02:06; [14]): 0.0367 µM

Sequence: AGILARWSSF
- Kd (HLA-A*32:01; [13]): 2.82 µM
- Kd (HLA-B*44:02; [13]): 5.11 µM

Sequence: LATGPVLTLW
- Kd (HLA-B*53:01): 0.0448 µM

Sequence: ALELGRKTL
- Kd (HLA-A*02:01 [4]; [15]): 8 µM
- Kd (HLA-A*69:01; [15]): ≥ 20 µM

Sequence: VTYLALIATF
- Kd (HLA-A*01:01 [3]; [16]): ≥ 50.8 µM
- Kd (HLA-A*26:01; [16]): ≥ 21.2 µM

Sequence: AEIQPQWIA
- Kd (HLA-B*44:02; [17]): 0.0264 µM
- Kd (HLA-B*44:03; [17]): 1.23 µM

Sequence: KMLNLNYIV
- Kd (HLA-A*32:01; [7]): 0.64 µM

Sequence: FMHSAAPIT
- Kd (HLA-A*02:01 [4]; [18]): 0.216 µM
- Kd (HLA-A*69:01; [18]): 7.66 µM
- Kd (HLA-B*15:01; [18]): 1.92 µM

Sequence: GEDAPCKIPF
- Kd (HLA-B*44:02; [16]): 0.0592 µM

Sequence: LVCGLRQLA
- IC50 (HLA-A*02:01 [1]; [10]): 7.66 µM

Sequence: LTDVEKRIL
- Kd (HLA-A*02:02; [7]): ≥ 27.4 µM
- Kd (HLA-A*02:03; [7]): ≥ 28.5 µM
- Kd (HLA-A*02:06; [7]): ≥ 77.1 µM

Sequence: ELTGYGTVTM
- Kd (HLA-A*26:01; [8]): 8.47 µM

Sequence: ATALILVSF
- Kd (HLA-A*32:01; [7]): 0.00142 µM

Sequence: RNPAQEDDQY
- Kd (HLA-A*30:02): 15.9 µM

Sequence: YQSFLFWFL
- Kd (HLA-A*02:02; [7]): 0.000381 µM
- Kd (HLA-A*02:03; [7]): 0.0025 µM
- Kd (HLA-A*02:06; [7]): 0.0401 µM

Sequence: LVQYIKFIF
- Kd (HLA-A*32:01; [7]): 0.0198 µM

Sequence: EVEDYGFGIF
- Kd (HLA-A*26:01; [13]): 1.61 µM

Sequence: APEFVTAAA
- Kd (HLA-B*07:02): 0.933 µM

Sequence: FISIYSRPKI
- Kd (HLA-A*02:02; [7]): 0.0228 µM
- Kd (HLA-A*02:03; [7]): 0.102 µM
- Kd (HLA-A*02:06; [7]): 0.396 µM

Sequence: DEDHAHWTEA
- Kd (HLA-A*32:01; [13]): 0.39 µM

Sequence: EEIAVQNWLA
- Kd (HLA-B*44:03; [8]): 0.431 µM

Sequence: ILLKIVTQF
- Kd (HLA-A*32:01; source organism: Dengue virus 4 Dominica/814669/1981): 0.412 µM

Sequence: KLGEFYNQMM
- IC50 (HLA-A*02:01 [1]; source organism: Influenza B virus): 2.82 µM

Sequence: SAVPTEWFPT
- Kd (HLA-A*32:01; [17]): ≥ 34 µM

Sequence: VESWEEIPYL
- Kd (HLA-B*40:01 [5]): 0.0528 µM

Sequence: VETPIRNEW
- Kd (HLA-B*40:01 [6]): ≥ 20 µM
